Measurements: IntAct's records for PubMed 24282027

Assays:
[1] = biological target: mfn1_mouse Mfn1 (UniProt Q811U4)
[2] = biological target: dyn1_human DNM1 (UniProt Q05193)
UniProt Q05193, sequence (Q05193 whole entry): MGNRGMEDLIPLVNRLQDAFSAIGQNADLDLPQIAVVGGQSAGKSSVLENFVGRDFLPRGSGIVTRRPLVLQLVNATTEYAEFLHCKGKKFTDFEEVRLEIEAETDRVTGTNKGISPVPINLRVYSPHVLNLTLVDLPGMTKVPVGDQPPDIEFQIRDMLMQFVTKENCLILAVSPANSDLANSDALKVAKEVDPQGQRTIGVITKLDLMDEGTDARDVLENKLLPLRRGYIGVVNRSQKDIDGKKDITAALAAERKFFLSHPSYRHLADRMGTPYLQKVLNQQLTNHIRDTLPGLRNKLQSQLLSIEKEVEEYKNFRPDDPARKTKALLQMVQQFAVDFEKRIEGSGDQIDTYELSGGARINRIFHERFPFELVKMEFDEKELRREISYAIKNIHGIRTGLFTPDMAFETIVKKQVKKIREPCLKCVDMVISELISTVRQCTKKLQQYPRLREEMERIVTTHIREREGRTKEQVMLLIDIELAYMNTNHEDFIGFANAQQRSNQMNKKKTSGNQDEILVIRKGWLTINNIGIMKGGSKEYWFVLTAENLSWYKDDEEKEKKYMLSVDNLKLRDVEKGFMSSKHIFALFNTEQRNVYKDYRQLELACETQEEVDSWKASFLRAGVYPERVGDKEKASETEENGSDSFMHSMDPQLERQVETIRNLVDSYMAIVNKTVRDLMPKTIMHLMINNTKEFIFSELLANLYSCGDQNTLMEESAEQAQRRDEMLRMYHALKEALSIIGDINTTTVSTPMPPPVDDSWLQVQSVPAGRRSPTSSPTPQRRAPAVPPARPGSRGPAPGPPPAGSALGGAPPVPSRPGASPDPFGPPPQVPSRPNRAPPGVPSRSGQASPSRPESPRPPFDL

UniProt Q811U4, sequence (Q811U4 whole entry): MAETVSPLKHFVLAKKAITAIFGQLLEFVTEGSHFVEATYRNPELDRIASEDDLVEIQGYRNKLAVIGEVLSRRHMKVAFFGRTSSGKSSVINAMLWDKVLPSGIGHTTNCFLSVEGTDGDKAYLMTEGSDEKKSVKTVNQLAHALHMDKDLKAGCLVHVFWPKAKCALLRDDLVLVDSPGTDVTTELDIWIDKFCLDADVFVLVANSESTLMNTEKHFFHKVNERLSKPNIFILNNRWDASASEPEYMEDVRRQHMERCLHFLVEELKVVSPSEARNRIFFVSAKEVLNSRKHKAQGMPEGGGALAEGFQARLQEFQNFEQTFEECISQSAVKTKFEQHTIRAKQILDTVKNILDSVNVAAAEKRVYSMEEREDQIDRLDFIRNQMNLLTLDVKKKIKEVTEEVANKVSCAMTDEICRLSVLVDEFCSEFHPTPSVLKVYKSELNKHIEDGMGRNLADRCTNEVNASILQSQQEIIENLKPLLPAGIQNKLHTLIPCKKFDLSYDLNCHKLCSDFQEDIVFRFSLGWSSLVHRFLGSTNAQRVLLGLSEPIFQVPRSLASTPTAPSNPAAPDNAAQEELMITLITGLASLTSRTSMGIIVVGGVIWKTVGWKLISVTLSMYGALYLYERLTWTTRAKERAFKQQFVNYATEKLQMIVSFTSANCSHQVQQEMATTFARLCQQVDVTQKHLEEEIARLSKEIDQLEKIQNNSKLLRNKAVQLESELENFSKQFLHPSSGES

## Leucine-rich repeat serine/threonine-protein kinase 2 (Homo sapiens), Q5S007 G2019S
[1]
  effect of a mutation on the interaction: increasing interaction
[2]
  effect of a mutation on the interaction: increasing interaction
